Data as given in patent US8624002B2, “Prostaglandin E2 binding proteins and uses thereof” (AbbVie, Inc., priority 2008, dated 2014).

Columns and labels:
^3H-PGE2 ELISA (binding) = assay: ^3H-PGE2 ELISA (binding)
Procedure: Alternatively, prostaglandin binding was determined using a ^3H-PGE2 ELISA. Plates were coated at 50 μL/well with 5 μg/ml of goat anti-human IgG (Fc) (Thermo Scientific # 31170, Hudson, N.H.) or goat anti-mouse IgG (Fc) (Thermo Scientific # 31125, Hudson, N.H.) in PBS and incubated overnight at 4° C. The following day, plates were flicked and blotted dry. Plates were blocked with 200 μL/well of Superblock (Thermo Scientific # 37515, Hudson, N.H.) for 1 hour at room temperature. Plates were flicked and blotted dry. Monoclonal antibodies were diluted to 0.04 μg/ml in phosphate buffer solution with Tween 20 (PBST) (Abbott Bioresearch Center, Worcester, Mass.) and 10% Superblock and 50 μL of each antibody was added to each well of the pre-blocked ELISA plate at 2 ng/well and incubated for 1 hour at room temperature. Wells were washed 3 times with PBS+0.1% Tween-20. A serial 3-fold titration of ^3H-PGE2 (Perkin Elmer # NET-428, Waltham, Mass.) was prepared in PBST/10% Superblock. Fifty microliters of the ^3H-PGE2 solution was added to each well of the plate and incubated for 1 hour at room temperature. […] Plates were read using a TopCount reader (Perkin Elmer, Waltham, Mass.) with a 5 minute count delay. An EC50 number was determined using GraphPad Prism 5 (GraphPad Software, La Jolla, Calif.).

[1] = test system: carrageenan-induced paw edema; assay: Carrageenan-induced footpad edema model; type: in vivo, C57.BL/6 mice
Procedure: Carrageenan-Induced Footpad Edema is an acute rodent model of innate immune function. The in vivo efficacy of mouse anti-PGE2 antibody 2B5-8.0 is assessed in a carragenan-induced paw edema model. The induction of paw inflammation with carrageenan is performed similarly as previously described (Joseph P. Portanova, et al. J. Exp. Med. 184: 883-891 (1996)). Intradermal (ID) injection of an inflammatory agent causes a rapid influx of neutrophils and fluid edema which peaks at approximately 4 hours, followed by an influx of macrophages and monocytes which peaks at approximately 48 hours. C57.BL/6 mice (8-10-week-old, Jackson Laboratories, Bar Harbor, Me.) were injected ID in the rear footpad with 30 μL of either PBS (left) or λ-carrageenen (Sigma Aldrich, St. Louis, Mo.) in PBS (right) at a concentration of 5.0 mg/mL (150 μg/mouse). Rear footpad thickness was measured by Dyer spring caliper model #310-119 at baseline (time=0), and 4 hours post carrageenan challenge. Significant difference for paw thickness was determined by comparing mean paw swelling for each treatment group to vehicle in a Student's two-tailed t-test. Mice were given a dose titration of an anti-PGE2 antibody (2B5-8.0) intraperitonially (IP) 18 hours prior to carrageenan challenge, or Indomethacin, PO 2 hours prior to challenge. The endpoint measured was the difference in paw swelling (edema) between right and left paws 4 hours after treatment.

[2] = test system: mouse collagen-induced arthritis; assay: Collagen-induced arthritis; type: in vivo, DBA/J mice; conditions: 8 mg/kg, 2×/week, i.p.
Procedure: Type II bovine collagen (lyophilized) was obtained from the University of Utah (Salt Lake City, Utah). Male DBA/J mice (8-10-week-old, Jackson Laboratories, Bar Harbor, Me.) were immunized intradermally at the base of the tail with 100 μL of emulsion containing 100 μg of type II bovine collagen dissolved in 0.1 N of acetic acid and 100 μg of heat-inactivated Mycobacterium tuberculosis H37Ra (Complete Freund's Adjuvant, Difco, Laurence, Kans.). Twenty-one days after immunization with collagen, mice were boosted IP with 1 mg of Zymosan A (Sigma, St. Louis, Mo.). Following the boost, mice were monitored daily for arthritis. Each paw was scored by the following criteria: 0=normal; 1=swelling in one site, foot, or ankle; 2=swelling in foot and ankle; and 3=ankylosis. Scores were summed for each animal, and total average of all animals in each group was expressed as MAS. In addition to clinical scores, mice were also evaluated for paw-edema using Dyer spring calipers model #310-119. […]
Micro-computed tomography was performed on a Scanco μCT-40 unit (Scanco Medical AG) at 60 kVp at 160 μA. The hind paws (stored in 70% ethanol) were secured in imaging tubes and the tarsal bone volume was measured for a 1.8-mm section of the mouse ankle from the base of the tibia to the tarsal/metatarsal joint at a resolution of 18 μm. The raw micro-computed tomography image was then analyzed using the Scanco AG μCT Evaluation program.
For histopathology analysis, formalin-fixed paws were sectioned and stained with Gills 3 hematoxylin (Richard-Allan Scientific, Kalamazoo, Mich.) and eosin with phloxine (Newcomer Supply, Middleton, Mich.). Severity of disease was evaluated histologically using the following criteria: 0=normal; 1=minimal change; 2=mild change; 3=moderate change; and 4=severe change. Scores were summed for each animal, and the total was expressed as an average of all animals in each group.
The therapeutic effects of anti-PGE2 alone was evaluated in mouse (male DBA/1J) collagen-induced arthritis, a standard preclinical model for human rheumatoid arthritis. […]

B1: 2B5-8.0: recombinant anti-PGE2 antibody from solved 2B5 sequence; VH SEQ ID NO 42, VL SEQ ID NO 43 (antibody, V domains shown)
VH: QVQLQQSGPELVRPGSSVKISCKASGYTFTKYWLGWVKQRPGHGLEWIGDIYPGYDYTHYNEKFKDKATLTVDTSSSTAYMQLSSLTSEDSAIYYCARSDGSSTYWGQGTLVTVSA
VL: DVLMTQTPLSLPVSLGDQASISCTSSQNIVHSNGNTYLEWYLQRPGQSPKLLIYKVSNRFSGVPDRFSGSGSGTVFTLKISRVEAEDLGVYYCFQVSHVPYTFGGGTKLEIKR
EC50 (^3H-PGE2 ELISA (binding)): 0.253 nM | Δ Paw Swelling (mm) ([1]; 10 mg/kg, i.p., 18 hours prior to carrageenan, 4 hours post challenge): 0.529 ± 0.04 mm | % Inhibition ([1]; 10 mg/kg, i.p., paw swelling 4 hours post challenge): 38 ± 4.6% | maximal inhibition of paw swelling ([1]; at 10 mg/kg): 40-50% | Paw Swelling (AUC) (mm # days) [2]: 8.4 ± 1.3 mm # days | Bone Volume (mm^3) ([2]; micro CT tarsal bone volume): 1.6 ± 0.1 mm^3 | MAS (AUC) (Score # days) ([2]; treatment after disease onset): 57.4 ± 6.7 Score # days
